We go through two proteins from patent US9273290B2, “Method for producing phosphite dehydrogenase protein and use thereof” (priority 2011, dated 2016).

Where “and” joins values, the source holds several entries; their conditions need not be identical. Equal entries are not always repeated.

Substrate in data set [1]: NC(=O)c1ccc[n+]([C@@H]2O[C@H](COP(=O)([O-])OP(=O)(O)OC[C@H]3O[C@@H](n4cnc5c(N)ncnc54)[C@H](O)[C@@H]3O)[C@@H](O)[C@H]2O)c1
Briefly: Reaction kinetic analysis: NADH production rate at varied NAD+ concentration. It counts as biochemical, Pseudomonas stutzeri WM88. The following applies: 28° C. The text has this:
By a well-known method, the base sequence of SEQ ID NO: 2 or a phosphite dehydrogenase gene (SEQ ID NO: 4) of P stutzeri WM88 was inserted into a plasmid pET21b (produced by Novagen) (an amino acid sequence of the protein encoded by the base sequence of SEQ ID NO: 4 is shown in SEQ ID NO: 3) to prepare (i) an expression vector of a fusion protein (see “PtxD4506” in FIG. 2) in which the C-terminal of the phosphite dehydrogenase protein of SEQ ID NO: 1 is labeled with a His tag or (ii) an expression vector of a fusion protein (see “PtxDPst” in FIG. 2) in which the C-terminal of the phosphite dehydrogenase protein of P stutzeri WM88 is labeled with a His tag.
The supernatant was supplied to a HisTrap column (produced by GE Healthcare) and, in accordance with protocols attached to the HisTrap column, a fusion protein in which a His tag was connected to the C-terminal of the phosphite dehydrogenase protein of SEQ ID NO: 1 was purified.
PtxD4506 and PtxDPst, which were purified with use of the HisTrap column in [3. Expression of Phosphite Dehydrogenase Protein By Using Escherichia Coli], were compared with each other in terms of reaction rate. The following description discusses how measurement of reaction rates was carried out.
Reaction rates of respective PtxD4506 and PtxDPst were calculated on the basis of (Reaction formula 1) shown in the section [Background Art].
Specifically, in the reaction system of (Reaction formula 1), a production rate of NADH was measured with use of 7.5 μg of each of the fusion proteins PtxD4506 and PtxDPst while a concentration of a substrate (NAD^+) was gradually changed from 0.5 μM to 200 μM. Note that a reaction temperature of the fusion protein PtxD4506 was 40° C., and a reaction temperature of the fusion protein PtxDPst was 28° C.
Based on the measured concentration of the substrate (NAD^+) and the measured production rate of NADH, values of Km (μM), Vmax (μmol/min/m), Kcat (min^−1), and Kcat/km were calculated in accordance with a well-known enzyme kinetic method (see, for example, “Fundamental Experiment Method of Proteins and Enzymes (2nd revised edition), Nankodo Co., Ltd.”). Note that the experiment was carried out three times, and values of Km, Vmax, Kcat, and Kcat/km were calculated in each of the experiments. Then, for each of Km, Vmax, Kcat, and Kcat/km, an average of the values calculated in the three experiments was obtained and defined as the value of each of Km, Vmax, Kcat, and Kcat/km. Kcat was calculated by the formula: Kcat=Vmax (μmol/min/mg)×(MW/10^3).

Substrate in data set [2]: NC(=O)c1ccc[n+]([C@@H]2O[C@H](COP(=O)([O-])OP(=O)(O)OC[C@H]3O[C@@H](n4cnc5c(N)ncnc54)[C@H](O)[C@@H]3O)[C@@H](O)[C@H]2O)c1
Put plainly: purified protein, by the assay type. The following applies: 40° C.

[3] abbreviates: other: NAD+ 0.5 μM to 200 μM, individual experiments 1-3.
The mark [4] stands for this setting: other: NAD+, average of three experiments.

B1: Pseudomonas stutzeri WM88 phosphite dehydrogenase, wild type, SEQ ID NO: 3, C-terminal His tag fusion (PtxDPst) (Stutzerimonas stutzeri) (protein)
chain: MLPKLVITHRVHDEILQLLAPHCELMTNQTDSTLTREEILRRCRDAQAMMAFMPDRVDADFLQACPELRVVGCALKGFDNFDVDACTARGVWLTFVPDLLTVPTAELAIGLAVGLGRHLRAADAFVRSGEFQGWQPQFYGTGLDNATVGILGMGAIGLAMADRLQGWGATLQYHEAKALDTQTEQRLGLRQVACSELFASSDFILLALPLNADTQHLVNAELLALVRPGALLVNPCRGSVVDEAAVLAALERGQLGGYAADVFEMEDWARADRPRLIDPALLAHPNTLFTPHIGSAVRAVRLEIERCAAQNIIQVLAGARPINAANRLPKAEPAAC
notes: His tag (C); made in house; host or cells: E. coli Rosetta2 (DE3), plasmid pET21b
What is called Km is the substrate concentration at which the rate is half of its maximum. One may read the Vmax as the rate approached at saturating substrate. Broadly, the kcat is the number of substrate molecules converted per active site and unit of time at saturation. Regarding B1, in data set [1] (setting [3]), the Michaelis-Menten constant (Km) was 74.4 µM and 71.2 µM and 74.7 µM. Further, in data set [1] (setting [4]), the Km turned out to be 73.4 µM, the Vmax stood at 4.2 µmol/min/mg and the kcat was 2.827 s⁻¹.

B2: Ralstonia sp. strain 4506 phosphite dehydrogenase, SEQ ID NO: 1, C-terminal His tag fusion (PtxD4506) (Ralstonia sp. 4506) (protein)
chain: MKPKVVLTHWVHPEIIELLSASADVIPNTTRETLPRSEVIARAKDADALMAFMPDSIDSAFLEECPKLRVIGAALKGYDNFDVNACTRHGVWLTIVPDLLTIPTAELTIGLLLGLTRHMLEGDRQIRSGHFQGWRPTLYGSGLTGKTLGIIGMGAVGRAIAQRLAGFEMNLLYCDPIPLNAEQEKAWHVQRVTLDELLEKCDYVVPMVPMAAETLHLIDATALAKMKTGSYLINACRGSVVDENAVIAALASGKLAGYAADVFEMEEWIRADRPQAIPKALLDNTAQTFFTPHLGSAVKEVRLEIERQAAMNIIQALAGEKPMGAINQPYPGVKAA
Consider B2, for which the Michaelis constant (Km) in data set [2] (setting [3]) was 22.6 µM and 23.3 µM and 25.1 µM. Also, in data set [2] (setting [4]), the Km was 23.7 µM, the Vmax was 5.9 µmol/min/mg and the kcat is 3.957 s⁻¹.
